Laboratory results taken from paper PMC11253605.

Target: T1, IFIT2 (GST-Ifit2, wild type) (Mus musculus, UniProt Q64112 1-472)
T1 sequence: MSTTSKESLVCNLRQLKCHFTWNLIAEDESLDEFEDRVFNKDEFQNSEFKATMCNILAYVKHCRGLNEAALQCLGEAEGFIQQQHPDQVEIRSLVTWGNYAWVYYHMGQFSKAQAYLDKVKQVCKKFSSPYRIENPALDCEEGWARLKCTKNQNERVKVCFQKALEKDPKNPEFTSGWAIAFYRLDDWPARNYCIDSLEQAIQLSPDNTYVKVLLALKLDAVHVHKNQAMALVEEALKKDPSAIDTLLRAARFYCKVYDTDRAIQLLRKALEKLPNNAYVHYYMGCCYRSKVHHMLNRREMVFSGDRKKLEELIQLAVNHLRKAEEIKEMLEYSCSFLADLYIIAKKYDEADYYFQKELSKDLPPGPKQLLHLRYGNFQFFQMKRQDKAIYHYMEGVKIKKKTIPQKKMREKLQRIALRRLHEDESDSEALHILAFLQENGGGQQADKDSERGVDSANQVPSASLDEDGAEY
Experiment: EMSA; 250 nM protein; at least two complexes; EMSA: 10 fmol labeled RNA in 10 uL, 250 nM protein, 50 mM Tris pH 8, 90 mM NaCl, 1 mM MgCl2, 9% glycerol, 0.05% Triton X-100, 30 min on ice; 6% native PAGE at 4 C
Conditions: protein: recombinant; tags: N-terminal GST (pGEX-6P-3); chain copies: 2; label: 5'-32P (T4 PNK); single strand

AUUAAUUUAUAAUUUAAAUUAUUUUCUACUUU (ssRNA) [32-nt AU-rich ssRNA]
binding result: binds
